In PMC10071571, “Site‐directed mutagenesis improves the practical application of L‐glutamic acid decarboxylase in Escherichia coli” (Engineering in Life Sciences, 2023):

T1: Gad B (Escherichia coli, UniProt P69910)
T1 construct: gene gadB; full length (1401 bp), pET-30a(+) His tag, expressed in E. coli BL21(DE3), Ni-NTA purified; about 53 kDa on SDS-PAGE; homo-hexamer
T1 sequence (P69910 1-466): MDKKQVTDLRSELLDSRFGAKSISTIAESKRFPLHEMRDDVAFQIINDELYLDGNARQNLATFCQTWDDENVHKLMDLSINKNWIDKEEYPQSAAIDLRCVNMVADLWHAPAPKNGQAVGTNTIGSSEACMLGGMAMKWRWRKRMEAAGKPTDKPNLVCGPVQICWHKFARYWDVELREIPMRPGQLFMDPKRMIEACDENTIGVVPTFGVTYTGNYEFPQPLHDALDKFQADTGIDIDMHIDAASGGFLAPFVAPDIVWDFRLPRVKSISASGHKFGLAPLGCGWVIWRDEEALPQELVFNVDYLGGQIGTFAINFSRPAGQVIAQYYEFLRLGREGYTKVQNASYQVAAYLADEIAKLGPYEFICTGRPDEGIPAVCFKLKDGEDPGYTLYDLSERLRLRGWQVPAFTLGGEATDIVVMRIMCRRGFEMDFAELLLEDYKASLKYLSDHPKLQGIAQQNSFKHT

B1: Gad B (Escherichia coli K-12) (protein)
chain: T1 sequence (P69910 1-466)
notes: full length (1401 bp), pET-30a(+) His tag, expressed in E. coli BL21(DE3), Ni-NTA purified; about 53 kDa on SDS-PAGE; homo-hexamer

Experiments:
Gad B = target: T1, Gad B; test: GABA formation at varied PLP concentration (HPLC); assay type: biochemical; conditions: coenzyme added to L-glutamate reaction; no constant
N[C@@H](CCC(=O)O)C(=O)O = test system: T2, N[C@@H](CCC(=O)O)C(=O)O; test: HPLC of GABA formed; Lineweaver-Burk plot; assay type: biochemical, Escherichia coli; conditions: substrate buffer with 0.05 mM PLP, phosphate buffer, 30 min, pH and temperature of the kinetics not given (optimum pH 4.3, 37 °C)
T2 construct: full length (1401 bp), pET-30a(+) His tag, expressed in E. coli BL21(DE3), Ni-NTA purified; about 53 kDa on SDS-PAGE; homo-hexamer
Excerpt: (§1) HPLC of GABA formed; Lineweaver-Burk plot on Gad B

[1] = substrate: N[C@@H](CCC(=O)O)C(=O)O; test: HPLC of GABA formed; Lineweaver-Burk plot; assay type: biochemical, Escherichia coli; conditions: substrate buffer with 0.05 mM PLP, phosphate buffer, 30 min, pH and temperature of the kinetics not given (optimum pH 4.3, 37 °C)
Excerpt: as §1

Molecule	GABA formation at varied PLP concentration (HPLC) (Gad B)	Km (N[C@@H](CCC(=O)O)C(=O)O)	Vmax (N[C@@H](CCC(=O)O)C(=O)O)	Km [1]	Vmax [1]
Cc1ncc(COP(=O)(O)O)c(C=O)c1O [PLP]	enzyme activity of wild‐type Gad B and Gad B‐T62S mutants was highest when using the coenzyme PLP				
Gad B (Escherichia coli K-12; Q309A)		7.2 ± 3.8 mM	87.3 µmol/min/mg		
Gad B (Escherichia coli K-12; T62S)		7.3 ± 2.5 mM	76.1 µmol/min/mg		
B1				11.3 ± 2.1 mM	32.1 µmol/min/mg
